These results are taken from US12365732 (23ANDME, dated 2025).

The chains are these.
T1: recombinant hu-CD96 (M1-M503-polyHis) (human, UniProt P40200 22-519)
T1 construct: also called hu-CD96-his
T1 sequence: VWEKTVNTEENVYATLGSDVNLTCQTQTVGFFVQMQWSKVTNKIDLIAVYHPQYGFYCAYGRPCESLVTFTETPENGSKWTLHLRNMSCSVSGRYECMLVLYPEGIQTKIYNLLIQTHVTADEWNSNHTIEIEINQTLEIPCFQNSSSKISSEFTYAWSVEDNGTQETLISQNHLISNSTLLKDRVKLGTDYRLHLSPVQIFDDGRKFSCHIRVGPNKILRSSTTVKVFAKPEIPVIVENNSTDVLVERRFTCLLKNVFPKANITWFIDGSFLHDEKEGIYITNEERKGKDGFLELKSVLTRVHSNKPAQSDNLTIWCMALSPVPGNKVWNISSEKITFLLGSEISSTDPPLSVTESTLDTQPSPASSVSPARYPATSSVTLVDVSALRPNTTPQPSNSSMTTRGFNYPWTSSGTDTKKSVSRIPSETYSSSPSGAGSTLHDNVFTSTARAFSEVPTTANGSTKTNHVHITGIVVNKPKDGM

T2: hu-CD96 isoform 2 on CHO cells (human, UniProt P40200 22-585)
T2 construct: also called CHO-CD96 (isoform 2); CD96-CHOs
T2 sequence: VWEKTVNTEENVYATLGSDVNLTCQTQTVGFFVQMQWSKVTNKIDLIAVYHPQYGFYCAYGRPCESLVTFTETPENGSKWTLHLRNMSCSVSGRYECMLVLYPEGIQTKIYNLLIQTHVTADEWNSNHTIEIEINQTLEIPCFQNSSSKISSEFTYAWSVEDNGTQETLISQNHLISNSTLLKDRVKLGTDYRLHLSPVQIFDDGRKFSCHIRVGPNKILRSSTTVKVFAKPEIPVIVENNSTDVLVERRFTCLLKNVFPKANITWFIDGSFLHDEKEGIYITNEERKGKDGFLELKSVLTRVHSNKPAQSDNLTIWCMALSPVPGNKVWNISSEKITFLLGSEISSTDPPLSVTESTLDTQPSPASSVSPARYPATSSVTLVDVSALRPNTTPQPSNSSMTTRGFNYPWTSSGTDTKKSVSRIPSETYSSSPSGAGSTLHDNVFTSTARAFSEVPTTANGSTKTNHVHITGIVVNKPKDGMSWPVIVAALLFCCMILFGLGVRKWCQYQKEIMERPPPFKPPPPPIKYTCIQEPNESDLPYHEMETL

B1: 10G1 (clone 10G1.3G8), purified hybridoma antibody (antibody, V domains shown)
VH: QIQLVQSGPELKKPGETVKISCKASGYPFTTYGMSWVKQAPGKGLKWMGWINTDSGVPTYADDFKGRFAFSLETSANTAYLQINSLKNEDAATYFCARNIYYGWGNFDYWGQGTILTVSS
VL: DILMTQSPTTLSVTPGETVSLSCRASQDIYRNLHWYQQKSQGTPRLLIKHASDSISGIPSRFTGSGSGTDFTLSINSVKPEDEGIYYCLQGYSMPYTFGGGTKLEIK
notes: murine hybridoma IgG
B2: 9H4, purified hybridoma antibody (antibody, V domains shown)
VH: EVQLLETGGGLVKSGGSLKLSCAASGFTFSDYYMYWVRQTPEKRLEWVAAISDDGTYTYYPDSVKGRFTISRDNANNYLYLQMSSLKSEDTAIYYCAKAGSYDYFDVWGAGTTVTVSS
VL: DIVLTQSPASLAVSLGQRAIISCKASQSVTFADTGLMHWYQQKPGQQPKLLIYRASNLEVGVPTRFSGSGSGTDFTLNIHPVEEEDVATYYCQQSREYPWTFGGGTKLEIK
notes: murine hybridoma IgG
B3: 7E5, purified hybridoma antibody (antibody, V domains shown)
VH: QVQLKESGPGLVAPSQSLSIICTVSGFSLTNYGIHWIRQPPGKGLEWLGIIWAGGSTNYNSALMSRLTISKDNSKSQVFLKMNSLQTNDTAIYYCARVSMMGFAYWGQGTLVTVSA
VL: QAVVTQESALTTSPGETVTLTCRSSTGAVTTSNYANWVQEKPDHLFTGLIGGTNNRAPGVPARFSGSLIGDKAALTITGAQTEDEAIYFCSLWYGSHWVFGGGTKLTVL
notes: murine hybridoma IgG
B4: mAb1.v7 Fab (Fab, V domains shown)
VH: EVQLVQSGAEVKKPGASVKVSCKASGFTFTNNWMHWVRQAPGQGLEWIGMIHPNSGITNINEKFKNRVTMTTDTSTSTAYMELRSLRSEDTAVYYCRSDGTYEGYFDYWGQGTLVTVSS
VL: DIQLTQSPSSLSASVGDRVTITCKASQNVGTAIVWYQQKPGKAPKVLIYSASTRYTGVPSRFSGSGSGTDFTLTISSLQPEDFATYYCQQYSSSPLTFGQGTKVEIK
B5: mAb1.v7.70 Fab (Fab, V domains shown)
VH: EVQLVQSGAEVKKPGASVKVSCKASGFTFTNRWMHWVRQAPGQGLEWIGMIHANSGITNINEKFKNRVTMTTDTSTSTAYMELRSLRSEDTAVYYCRSDGVYEGYFDYWGQGTLVTVSS
VL: DIQLTQSPSSLSASVGDRVTITCKASQNVGTAIVWYQQKPGKAPKVLIYSASTRYTGVPSRFSGSGSGTDFTLTISSLQPEDFATYYCQQYSSSPLTFGQGTKVEIK
notes: also called N32R/P52aA/T97V
B6: mAb1.v7.48 Fab (Fab, V domains shown)
VH: EVQLVQSGAEVKKPGASVKVSCKASGFTFTNRWMHWVRQAPGQGLEWIGMIHHNSGITNINEKFKNRVTMTTDTSTSTAYMELRSLRSEDTAVYYCRSDGVYEGYFDYWGQGTLVTVSS
VL: DIQLTQSPSSLSASVGDRVTITCKASQNVGTAIVWYQQKPGKAPKVLIYSASTRYTGVPSRFSGSGSGTDFTLTISSLQPEDFATYYCQQYSSSPLTFGQGTKVEIK
notes: also called N32R/P52aH/T97V
B7: mAb1.v7.2 Fab (Fab, V domains shown)
VH: EVQLVQSGAEVKKPGASVKVSCKASGFTFTNNWRHWVRQAPGQGLEWIGMIHFNSGITNINEKFKNRVTMTTDTSTSTAYMELRSLRSEDTAVYYCRSDGVYEGYFDYWGQGTLVTVSS
VL: DIQLTQSPSSLSASVGDRVTITCKASQNVGTAIVWYQQKPGKAPKVLIYSASTRYTGVPSRFSGSGSGTDFTLTISSLQPEDFATYYCQQYSSSPLTFGQGTKVEIK
notes: also called M34R/P52aF/T97V
B8: mAb1.v7.16 Fab (Fab, V domains shown)
VH: EVQLVQSGAEVKKPGASVKVSCKASGFTFTNNWRHWVRQAPGQGLEWIGMIHPNSGITNINEKFKNRVTMTTDTSTSTAYMELRSLRSEDTAVYYCRSDGVYEGYFDYWGQGTLVTVSS
VL: DIQLTQSPSSLSASVGDRVTITCKASQNVGTAIVWYQQKPGKAPKVLIYSASTRYTGVPSRFSGSGSGTDFTLTISSLQPEDFATYYCQQYSSSPLTFGQGTKVEIK
notes: also called M34R/T97V
B9: mAb1.v7.9 Fab (Fab, V domains shown)
VH: EVQLVQSGAEVKKPGASVKVSCKASGFTFTNNWRHWVRQAPGQGLEWIGMIHMNSGITNINEKFKNRVTMTTDTSTSTAYMELRSLRSEDTAVYYCRSDGVYEGYFDYWGQGTLVTVSS
VL: DIQLTQSPSSLSASVGDRVTITCKASQNVGTAIVWYQQKPGKAPKVLIYSASTRYTGVPSRFSGSGSGTDFTLTISSLQPEDFATYYCQQYSSSPLTFGQGTKVEIK
notes: also called M34R/P52aM/T97V
B10: mAb1.v7.NGS10 IgG (antibody, V domains shown)
VH: EVQLVQSGAEVKKPGASVKVSCKASGFTFTNNFMHWVRQAPGQGLEWIGFIHANSGITNINEKFKNRVTMTTDTSTSTAYMELRSLRSEDTAVYYCRSDGIYEGYFDYWGQGTLVTVSS
VL: DIQLTQSPSSLSASVGDRVTITCKASQNVGTAIVWYQQKPGKAPKVLIYSASTRYTGVPSRFSGSGSGTDFTLTISSLQPEDFATYYCQQYSSSPLTFGQGTKVEIKG
notes: human IgG1 N297G
B11: mAb1.v7.NGS9 IgG (antibody, V domains shown)
VH: EVQLVQSGAEVKKPGASVKVSCKASGFTFTNNFMHWVRQAPGQGLEWIGMIHANSGITNINEKFKNRVTMTTDTSTSTAYMELRSLRSEDTAVYYCRSDGVYEGYFDYWGQGTLVTVSS
VL: DIQLTQSPSSLSASVGDRVTITCKASQNVGTAIVWYQQKPGKAPKVLIYSASTRYTGVPSRFSGSGSGTDFTLTISSLQPEDFATYYCQQYSSSPLTFGQGTKVEIKG
notes: human IgG1 N297G

One experiment addresses T1, recombinant hu-CD96 (M1-M503-polyHis). Description: ELISA, blocks hu-CD96-his binding to coated CD155-hFc. Here is the method: CD96 binding of purified hybridoma antibodies: The hu-CD96 and cy-CD96 antigen binding ELISA was performed on the purified hybridoma antibodies. Briefly, 96-well MAXISORP® flat bottom plates (Thermo Fisher Scientific, Waltham, MA; Cat #439454) were coated overnight at 4° C. with 0.5 µg/mL of hu-CD96D1 D3-hFc and cynomolgus monkey CD96D1 D3-hFc in PBS. After removing the coating solution, unspecific binding was blocked by PBS containing 1% bovine serum albumin (blocking buffer) and incubation at room temperature for one hour. Plates were then washed three times with PBS and 0.05% TWEEN®-20 (wash buffer). Serial dilution of purified antibodies in PBS containing 0.5% BSA and 0.05% Tween 20 (ELISA buffer) was added to individual wells followed by incubation at room temperature for one hour with agitation. Plates were washed three times with wash buffer, then 100 µL/well of anti-mouse IgG-HRP (Thermo Fisher Scientific, Waltham, MA; Cat #626520) in ELISA buffer was added. […] Enzymatic color development was stopped with 50 µL/well of TMB stop solution (VWR/Avantor, Radnor, PA, USA; Cat #95059-200). Plates were analyzed with a SpectraMax i3X plate reader (Molecular Devices LLC, San Jose, CA, USA) at 450 nm.
CD155 receptor blocking of purified hybridoma antibodies: Human CD155 blocking ELISA was performed on purified hybridoma antibodies following the same protocol as described for CD96 (above), except that serial dilution of purified antibodies 50 µL/well (starting at 1 µM, 1:5 dilution) in assay buffer was added into the reaction.
On the technique in general: ELISA stands for enzyme-linked immunosorbent assay.
Consider B1, for which the IC50 amounted to 2.59 nM.

Turning to B2, the IC50 came out at 2.23 nM.

For the molecule B3, the IC50 is 2.15 nM.

The next experiment deals with T3, hu-CD96 Fc (human, biotinylated in Table 16).
T3 construct: also called biotinylated hu-CD96-Fc
Description: SPR 25C, CD96-Fc on Protein A, Fab analyte. Here is the method:
Briefly, hu-CD96 Fc and cy-CD96 Fc were diluted at 10 µg/mL in HBS-P buffer (0.01 M HEPES pH 7.4, 0.15 M NaCl, 0.005% Surfactant P20) and applied to the Protein A chip at 30 µL/min flow rate for 60 s in flow cell 2 (FC2). Then flow 3-fold serial dilutions of mAb1.v7 Fab variants in HBS-P buffer (0.01 M HEPES pH 7.4, 0.15 M NaCl, 0.005% surfactant P20) from (0.4 nM) to high (1000 nM) were injected (flow rate: 30 µL/min) at 25° C. to both flow cell 1 (FC1) and flow cell 2 (FC2). The sensorgram was recorded and subject to reference and buffer subtraction before evaluating by BIA- CORE® 8K Evaluation Software (version 1.1.1.7442). Association rates ($kon$) and dissociation rates ($koff$) were calculated using a simple one-to-one Langmuir binding model. The equilibrium dissociation constant (K_D) was calculated as the ratio of $koff/kon$, and the values determined for the mAb1.v7 and the 5 Fab variants are summarized in Table 10 (below).
As to B4, the Kd was found to be 44.6 nM, the koff was 0.000817 s⁻¹ and the kon came to 18300 M⁻¹ s⁻¹.

The molecule B5 showed a Kd of 1.73 nM, a koff of 2.74e-05 s⁻¹ and an association rate constant (kon) of 15900 M⁻¹ s⁻¹.

In turn, B6 gave a Kd of 0.795 nM, a koff of 1.26e-05 s⁻¹ and a kon of 15900 M⁻¹ s⁻¹.

B7 displayed a Kd of 0.67 nM, a koff of 1.06e-05 s⁻¹ and a kon of 15800 M⁻¹ s⁻¹.

Consider B8, for which the Kd was 0.38 nM, the koff came out at 2.81e-06 s⁻¹ and the kon was determined as 7380 M⁻¹ s⁻¹.

B9 came in with an equilibrium dissociation constant (Kd) of 5.05 nM, a koff of 7.02e-05 s⁻¹ and an association rate constant (kon) of 13900 M⁻¹ s⁻¹.

The target of another experiment is T2, hu-CD96 isoform 2 on CHO cells. Description: FACS, CD155-Fc-FLAG 10 nM, Ab 0.0064 nM. Here is the method: CHO cells stably expressing isoform 2 of hu-CD96 (Origene, catalog #RC221005) were incubated with anti-CD96 antibodies for 20 minutes at 4° C. The cells were washed, and then incubated with 10 nM human CD155-Fc-FLAG for 30 minutes at 4° C. Cells were washed, and then human CD155-Fc-FLAG binding was detected by incubation with anti-FLAG-APC (Columbia Biosciences, catalog #D3-1718-1MG) for 20 minutes at 4° C. Cell binding was analyzed by flow cytometry with a CytoFLEX (Beckman Coulter). CD155 binding is represented as median fluorescence intensity (MedFI).
As shown in Table 20 (below), the anti-CD96 antibodies, mAb1.v7.NGS8, mAb1.v7.NGS9, mAb1.v7.NGS10, mAb1.v7.NGS11, and h10G1 inhibited soluble hu-CD155 binding to CD96-expressing CHO cells dose-dependently and potently. The antibody NK92.39 (Fuchs et al., 2004; Biolegend catalog #338405) inhibited receptor binding similarly.
As to B10, the “CD155-Fc binding (MedFI)” value turned out to be 55900 MedFI.

Turning to B11, the “CD155-Fc binding (MedFI)” value turned out to be 56600 MedFI.

The term IC50 denotes the concentration needed to halve the response being measured. As a reminder, the Kd is the free concentration of one partner at which half of the binding sites on the other are occupied at equilibrium, for simple one-to-one binding. Read a low Kd as a tighter complex. In general, koff refers to the rate constant with which the complex falls apart. Usually kon stands for the second-order rate constant of association. Lower therefore signals slow association.
